Substrate in this data set: CC(=O)N[C@H]1[C@H](Oc2ccc3c(C)cc(=O)oc3c2)O[C@H](CO)[C@@H](O)[C@@H]1O
The data set can be described thus: purified protein.

The Km is the concentration of substrate that gives half-maximal velocity.

B1: human O-GlcNAcase (hOGA) (Homo sapiens) (protein)
chain: AAGGARRFLCGVVEGFYGRPWVMEQRKELFRRLQKWELNTYLYAPKDDYKHRMFWREMYSVEEAEQLMTLISAAREYEIEFIYAISPGLDITFSNPKEVSTLKRKLDQVSQFGCRSFALLFDDIDHNMCAADKEVFSSFAHAQVSITNEIYQYLGEPETFLFCPTEYCGTFCYPNVSQSPYLRTVGEKLLPGIEVLWTGPKVVSKEIPVESIEEVSKIIKRAPVIWDNIHANDYDQKRLFLGPYKGRSTELIPRLKGVLTNPNCEFEANYVAIHTLATWYKSNMNGVRKDVVMTDSEDSTVSIQIKLENEGSDEDIETDVLYSPQMALKLALTEWLQEFGVPHQYSSRQVAHSGAKASVVDGTPLVAAPSLNATTVVTTVYQEPIMSQGAALSGEPTTLTKEEEKKQPDEEPMDMVVEKQEETDHKNDNQILSEIVEAKMAEELKPMDTDKESIAESKSPEMSMQEDCISDIAPMQTDEQTNKEQFVPGPNEKPLYTAEPVTLEDLQLLADLFYLPYEHGPKGAQMLREFQWLRANSSVVSVNCKGKDSEKIEEWRSRAAKFEEMCGLVMGMFTRLSNCANRTILYDMYSYVWDIKSIMSMVKSFVQWLGCRSHSSAQFLIGDQEPWAFRGGLAGEFQRLLPIDGANDLFFQPPPLTPTSKVYTIRPYFPKDEASVYKICREMYDDGVGLPFQSQPDLIGDKLVGGLLSLSLDYCFVLEDEDGICGYALGTVDVTPFIKKCKISWIPFMQEKYTKPNGDKELSEAEKIMLSFHEEQEVLPETFLANFPSLIKMDIHKKVTDPSVAKSMMACLLSSLKANGSRGAFCEVRPDDKRILEFYSKLGCFEIAKMEGFPKDVVILGRSL
For B1, the Km worked out at 80 ± 6 µM.

The values are drawn from publication PMC2568864, “Chemical Dissection of the Link between Streptozotocin, O-GlcNAc, and Pancreatic Cell Death” (Chemistry & Biology, 2008).
